Holding throughout (assay): SPR
For orientation: In SPR one partner is held on a chip, and binding of the other changes the refractive index at the surface.

In test [1] the target is human FcγRIIB, HIS-tagged (human) (UniProt P31994).
The target of test [2] is human FcγRIIA 167R, HIS-tagged (human) (UniProt P12318).
In test [3] the target is human FcγRIIA 167H, HIS-tagged (human) (UniProt P12318).
In test [4] the target is human FcγRIIIA 176F, HIS-tagged (human) (UniProt P08637).
For test [5], the target named is human FcγRI, HIS-tagged (human) (UniProt P12314).
UniProt P12314, sequence (P12314 16-374): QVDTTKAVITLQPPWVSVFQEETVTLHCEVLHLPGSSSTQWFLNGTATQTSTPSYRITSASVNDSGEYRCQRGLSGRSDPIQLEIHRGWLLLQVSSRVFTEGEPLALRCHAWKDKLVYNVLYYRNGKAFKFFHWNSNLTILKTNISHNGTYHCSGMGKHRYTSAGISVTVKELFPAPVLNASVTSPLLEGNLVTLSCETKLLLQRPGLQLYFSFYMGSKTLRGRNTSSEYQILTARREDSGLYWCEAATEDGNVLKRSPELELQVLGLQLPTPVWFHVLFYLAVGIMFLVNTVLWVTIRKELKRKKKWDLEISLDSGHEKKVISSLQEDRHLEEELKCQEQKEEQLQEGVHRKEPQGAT
Test [6] deals with human FcγRIIIA 176V, HIS-tagged (human) (UniProt P08637).

UniProt P31994, sequence (P31994 43-310): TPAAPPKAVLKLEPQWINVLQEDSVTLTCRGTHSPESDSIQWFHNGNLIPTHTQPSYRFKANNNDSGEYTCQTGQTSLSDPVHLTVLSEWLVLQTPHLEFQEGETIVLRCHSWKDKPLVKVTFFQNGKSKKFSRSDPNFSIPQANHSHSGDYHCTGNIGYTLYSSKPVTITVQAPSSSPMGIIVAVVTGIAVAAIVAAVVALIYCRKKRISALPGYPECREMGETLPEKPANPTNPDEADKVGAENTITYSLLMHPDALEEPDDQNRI

With “TA99 hIgG1 S298G/T299A, aglycosylated (antibody)”, the Kd (usually the free concentration of one partner at which half of the binding sites on the other are occupied at equilibrium, for simple one-to-one binding) in test [1] was 6.45 µM; in test [2], > 10 µM; in test [3] it was 996 nM.
On to “TA99 hIgG1 T299A/K326I/A327Y/L328G, aglycosylated (antibody)”, for which the dissociation constant (Kd) is 2.1 µM in test [1]; 2.49 µM in test [2]; 1240 nM in test [4]; 605 nM in test [3]; 243 nM in test [5]; 452 nM in test [6].
For “TA99 hIgG1 N297Q, aglycosylated (antibody)”, the dissociation constant Kd in test [5] stood at 295 nM.
For “TA99 hIgG1 N297H/S298A/K326I/A327Y/L328G, aglycosylated (antibody)”, the Kd in test [4] came to 1680 nM; in test [6], 1790 nM.
With “TA99 hIgG1 N297D/S298A/K326I/A327Y/L328G, aglycosylated (antibody)”, the Kd was > 10 µM in test [2], 2230 nM in test [4], 29 nM in test [5] and 1050 nM in test [6].
For “TA99 hIgG1 wild-type, glycosylated (from UniProt P01857 1-399) (antibody)”, the dissociation constant (Kd) was determined as 3.52 µM in test [1]; 8.02 µM in test [2]; 4540 nM in test [4]; 1150 nM in test [3]; 1700 nM in test [6].
For “human IgG1 used as a control on Biacore (antibody)”, the Kd in test [1] came out at 6.5 µM; in test [3], 1100 nM; in test [6], 348 nM.
On to “TA99 hIgG1 N297D/S298T/K326I/A327Y/L328G, aglycosylated (antibody)”, for which the Kd in test [2] is 2.73 µM; in test [4], 1810 nM; in test [5], 5 nM; in test [6], 1040 nM.

(Values after paper PMC5584586.)
